Test: soluble on expression in E. coli; label from the status in PepcDB or PDB records

Sequence | soluble on expression in E. coli
MSLGILRQAHWRNPSLERSPALILAHGCFEDVHGKVAHGLVRGTDRFDIVAVIDPDCAGHDAGTLLDGRPRNIPVFASIEAALAQGRRRPAVAIVGMATHGGRFTETLRAALFEAAAAGLSLVNGLHDLAGDDPEIAAETARHGASILDLRRPRAVAELHFWTGQIHGVAAPRIAVLGTDCALGKRTTARLLTQALNADGIRTEMIYTGQTGWMQGGRYGFILDALPNDFVSGELEHAILTCYREVRPDLIILEGQSALRNPSGPCGAELLLSGAAAGVILQHAPGRRHYDGFEGSRFRIPPVEDEIRLIEHYGVPVLGVSLNGRDSGPEGLREAQRRLARTLDVPVVCPLEDGVTDLLPPLRALLEREEVAEGHHHHHH | soluble
MGSDKIHHHHHHMRSIVQNKVEECLEILKWDKTKWIDFWRELRRKFGPIVPNYERKLELNDEKIEKILREIERRELDRFKWDWLDVSRNKKIECAESLSEREDFLDLKREDFSVFLMSLLGLSDWVVVDGEKEKIVVMDVFSLWRKGLLRELSLATLHAVIEFRKGKEIGNYGGKKEYFDSLLKEIEKILKRGKEALGDLCEFLRNHVSYYDWVGFYFVEDGKLKLGPFVGEPTEHVEIPFGVGICGQAAEREETFVVQDVSKETNYLSCSPKTKAEIVVPIFKDGKIIGELDIDSYSPSPFSEEDRAFLEKVCELVSKVV | not soluble
MNSQQEWEHAYSLAERMYNKQAPTKREELNPTERVICSRFETIFDYDPFKDEYTFRDQALLFSTPVQPKCRTVAEADLHELKENTAKLNIPMPSYINICPIYALLPFTVLVFNNSQHAHKSLSDDMERAAATFRNPHESEIVPGAMYIFKQKHGKAYRCIILSEDGDMNIPDAERKYLVAFIDNVQIVSVKQKTLFVSDQFSIKDYPCALHCARIVGISAIRKSYVSGMNQFILNFYDAKEKRKAGMFAFIYKLDKEEKKLVIDYPSLLGTPKTTSTEIRTAVGHQIVASKDPVSLTFEQLNKKEVPEFKYLNSTDDDSDVELDLIEHDTKSVNPVASSHPTSSSMDDCPYGRASIARAKDYQLRLPPHSQKGLSSSSLLGSSYPVSNSIKNDITKQSESNRADATNISFSSFESTKSDISPQNNQNVEETSTPTVPPNSTIQENEEDEIMSPASIIRAPSRLAGSLNKVSIERPNTPLPTSSKNSEHNMSEISTYEASSISSHHLVPQSPSVPKTNYTVPVVQRPLTAPEKFRDPFGGPGSSDILNTKMLCSEKNIVPSNKFGRQISPGKDDKNENYQYSRMETKPQTLFAPVLDENQRQSSSSNMMCQIPDISSVAQVGFL | not soluble
MGSDKIHHHHHHMQSFDVVIAGGGMVGLALACGLQGSGLRIAVLEKQAAEPQTLGKGHALRVSAINAASECLLRHIGVWENLVAQRVSPYNDMQVWDKDSFGKISFSGEEFGFSHLGHIIENPVIQQVLWQRASQLSDITLLSPTSLKQVAWGENEAFITLQDDSMLTARLVVGADGAHSWLRQHADIPLTFWDYGHHALVANIRTEHPHQSVARQAFHGDGILAFLPLDDPHLCSIVWSLSPEQALVMQSLPVEEFNRQVAMAFDMRLGLCELESERQTFPLMGRYARSFAAHRLVLVGDAAHTIHPLAGQGVNLGFMDVAELIAELKRLQTQGKDIGQHLYLRRYERRRKHSAAVMLASMQGFRELFDGDNPAKKLLRDVGLVLADKLPGIKPTLVRQAMGLHDLPDWLSAGK | not soluble
MSSEELEQVWSNIKSEARALAECEPMLASFFHATLLKHENLGSALSYILANKLANPIMPAIAIREVVEEAYRSDAHMIVSAARDILAVRLRDPAVDKYSTPLLYLKGFHALQAYRIGHWLWAQDRKALAIYLQNQVSVAFGVDIHPAATIGCGIMLDHATGIVIGETAVVENDVSILQSVTLGGTGKTSGDRHPKIREGVMIGAGAKILGNIEVGRGAKIGAGSVVLQSVPAHTTAAGVPARIVGKPESDKPSLDMDQHFNGSIQGFEYGDGI | not soluble
GAKNYYDITLALAGICQSARLVQQLAHQGHCDADALHVSLNSIIDMNPSSTLAVFGGSEANLRVGLETLLGVLNASSRQGLNAELTRYTLSLMVLERKLSSAKGALDTLGNRINGLQRQLEHFDLQSETLMSAMAAIYVDVISPLGPRIQVTGSPAVLQSPQVQAKVRATLLAGIRAAVLWHQVGGGRLQLMFSRNRLTTQAKQILAHLTPEL | soluble
MGSDKIHHHHHHLFDRYEAGETAVLVHIDFTDEGSREDLAELQLLVESAGARSVGVITGSRRAPDRKFFVGTGKAEELAAMVAATDANVVIFNHALSPAQERNLEHLCRCRVLDRTTLILDIFAQRARTHEGKLQVELAQLRHMSTRLVRGWTHLERQKGGIGLRGPGETQLETDRRLLRGRIKNINRRLEKVDKQREQSRRARQRSDMAAVSLVGYTNAGKSTLFNTLTSAEVYAADQLFATLDPTLRKLELPDGAAILADTVGFIRHLPHDLVAAFKATLQETREADLLLHVIDCADEKMRDNIEQVQAVLKEIDADEIPQLIVCNKIDLVEGIKPAIDRDDTGKPFRVWLSAQQNQGLDLLRQAVQELVGNVIAELTLKIPATAGHYLGQFYRLDAIQQKEYDDLGNCILSVRLPDADWRRLAKQSQGELETFIVDTATDRVVC | not soluble
MSALFEPYTLKDVTLRNRIAIPPMSQYMAEDGMINDWHHVHLAGLARGGAGLLVVEATAVAPEGRITPGCAGIWSDAHAQAFVPVVQAIKAAGSVPGIQIAHAGRKASANRPWEGDDHIAADDTRGWETIAPSAIAFGAHLPKVPREMTLDDIARVKQDFVDAARRARDAGFEWIELHFAHGYLGQSFFSEHSNKRTDAYGGSFDNRSRFLLETLAAVREVWPENLPLTARFGVLEYDGRDEQTLEESIELARRFKAGGLDLLSVSVGFTIPDTNIPWGPAFMGPIAERVRREAKLPVTSAWGFGTPQLAEAALQANQLDLVSVGRAHLADPHWAYFAAKELGVEKASWTLPAPYAHWLERYR | soluble
MSGFSVYVGNAPFQTTEDDLGNYFSQAGNVSNVRIVCDRETGRPRGFAFVEFTEEAAAQRAVDQFNGVDFNGRALRVNLAQNRNN | not soluble
SMQPPIAKPGETWILQAKRSDEFNVKDATKWNFQTENYGVWSWKNENATVSKGKLKLTTKRESHQRTFWDGCNQQQVANYPLYYTSGVAKSRATGNYGYYEARIKGASTFPGVSPAFWMYSTIDRSLTKEGDVQYSEIDVVELTQKSAVRESDHDLHNIVVKNGKPTWMRPGSFPQTNHNGYHLPFDPRNDFHTYGVNVTKDKITWYVDGEIVGEKDNLYWHRQMNLTLSQGLRAPHTQWKCNQFYPSANKSAEGFPTSMEVDYVRTWVKV | soluble
GPGSMGSEESNNICAYKRTISLAKIYIVLLVKTAMLRYSRLCFPKMGCEEIKRKARRVQLQPTEYLAQHRMQVWQLRFKEMGPPFSRVWVALGGKMRRRRVGRQVDVKDMRYYWRPIEPQYQRLYMSRLRIRDHSNKLRQPMRLRATNADIGSGSSSIEWERASNRKYGAMLAPPKRQDFEFRVV | not soluble
MKSVVSSRETRSESNKSRRTFASTEWNKIIRETLYLETIYIPLDATSHSPDIIFQLQSPVEPKVLTVGVACKGRWKSEGIGWSDIIDEAKKFLDPVYDQVLSSAMDYHHCMLIIVSTKLSLNVSNELGNQSRCYSSGMFIRGDSFKVPDNCELVILCERDVQMLIDEEILSGLERAFHVSRSPTFWDFRLDLLVNLQ | not soluble
MAHHHHHHMADLRDELDATALFGSGYVCIVGPPSSGKTTLILEYLVARERQAVHSGDGDAAAFCMEYVSARSAPHELLRHLTYRLLPHARRRRLSYECTPLEFSASLVEWVEAHPGQSELHLVVDDADALEYSAEEMNLWLSHYLRAPAEQRCTVILWLISELPLRLSNCFRYHFIARPEANSIVQWLHHQFEEERRLLAGLESEEDDSEHTVNGAPMTTLSADEVNRVVLDAFTYYATHQPMCSSVVSRDVRLLVQRVYQILPPLLLEVAATTSAVPGESGEAAVSASTTADAVKKLNARHFAAAWSQYRSDGGGGTSSAMAVSGAAASAQNTLVMALKRLGYSAVLLAFAAFYGGAVPKRQQHQVFGRIGSGERQPPLHEAKGQSHKAAVLTASAHVVTLRRLGFLYDAMLRMCTPHIDPLEFTTADVALQYVQGFVAWGLLTPVVSQRHRSYHCWIPVSTAPAVGA | not soluble
MSFFEQYRTGNLVLPNALFFHFKDIFPSADDFLVWQFLYLQTTTQIGEVASSQIAQATGKTPTEVNKSITTLTEAGLLDFTTVKVNNEIKMVVDASPALAVLDKLVSSENSTTGPVAGQPTNTQLIKQLTDELEQALGILNPMVIEDLNKEIQEEHTDPELIREALKEAVFNRKTNWNYIKGVLRNWKLSGITTKIQVEERRLEHQGKKQHHQVSDEFKTGMDAARQLWGGQ | not soluble
